Molecular target: full-length dengue virus serotype 1 (DENV1) NS1 (dengue virus serotype 1 (DENV1))
Assay: crystal structure

## full-length dengue virus serotype 1 (DENV1) NS1 (natural protein)
  stoichiometry N: 2

Reference: publication PMC8000976
